Test system: K4 kissing-loop RNA reporter
Assay: apparent KD of K4 kissing-loop reporter; higher = weaker reporter binding
Settings: Eterna round: R107
Method: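 RNA-MaP round R107: designed RNA switches with theophylline, tryptophan, arginine or FMN aptamers are transcribed on-chip within common flanks. They are titrated with a labelled K4 kissing-loop RNA reporter in RNA-MaP buffer (100 mM Tris pH 7.5, 80 mM KCl, 4 mM MgCl2), without ligand or with the indicated ligand. Median apparent KD per design.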

[1] = input ligand: theophylline 20 uM
[2] = input ligand: tryptophan 2.4 mM
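Also: bound reporter read as fluorescence of individual clusters on recovered sequencing chips by microscopy, with normalized cluster intensities fitted with a binding model.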

Sequence | apparent KD of K4 kissing-loop reporter (input ligand: FMN 200 uM) [nM] | apparent KD of K4 kissing-loop reporter (input ligand: arginine 13.2 mM) [nM] | apparent KD of K4 kissing-loop reporter (input ligand: none) [nM] | apparent KD of K4 kissing-loop reporter [1] [nM] | apparent KD of K4 kissing-loop reporter [2] [nM]
AGAAGGUCAAAGACCUUCGUGCACACUGAUACCAGUCGCGAAAGCGACCCUUGGCAGCAGGGCAGUGAUGUUGCCAAGUGCACAA [Omei KL Theo A SS A v2] | 252 | 278 | 267 | 136 | 235
AGACCACAAAGUGGUCAGUGUUCGCAGCAGCGAGGACCGGUACGGCCGCCACUCGCGAGUGAUGUUCGCGAGAGCUGCGAACACA [Omei KL Tryp A Exc A v7] | 101 | 83.2 | 81.3 | 83.3 | 109
AGACUACCACACUGUCAAUAGACAGUGAACUAGGAUAUGCUGAUAAGCAGAAGGAGUGAUGUUCCUAAUAAAAGGUAGUCAUAAU [FmnAX 16 #SwitchBubble #StaticStem #K4Early] | 426 | 431 | 415 | 587 | 360
AGACUACCACACUGUCAAUAGACAGUGAACUAGGAUAUGCUGAUAAGCAGAAGGAGUGAUGUUCCUAGGUAGUCAAUAAAAUAAU [FmnAX 13 #SwitchBubble #StaticStem #K4Early] | 349 | 350 | 383 | 447 | 401
AGACUACCACACUGUCAAUAGACAGUGAACUAGGAUAUGCUGAUAAGCAGAAGGAGUGAUGUUCCUGGGUAGUCAAUAAAAUAAU [FmnAX 13 G67] | 372 | 338 | 367 | 427 | 364
AGACUACCACACUGUCAAUAGACAGUGGACUAGGAUAUGCUGAUAAGCAGAAGGAGUGAUGUUCCGAGGUAGUCAAUAAAAUAAU [FmnAX 13 G28+G66] | 304 | 309 | 315 | 401 | 316
AGACUACCACACUGUCAAUAGACAGUGGACUAGGAUAUGCUGAUAAGCAGAAGGAGUGAUGUUCCUGGGUAGUCAAUAAAAUAAU [FmnAX 13 G28+G67] | 484 | 366 | 526 | 696 | 425
AGACUACCUACACUGUCAAUAGACAGUGACUAGGAUAUGCUGAUAAGCAGAAGGAGUGAUGUUCCAAAUAAAAGGUGGUAGUCAU [FmnAX 18 #SwitchBubble #StaticStem #K4Early] | 378 | 160 | 142 | 152 | 111
AGACUACUGAUAGGAUAUAACAUACUACUCGUAUACCAAAGGUAUACGAGAACCCUUCUAGUGAUGUUAGAAGGGUCGGUAGUCA [Omei KL FMN B Exc B v7] | 82.6 | 68 | 70.9 | 70.1 | 72.8
AGACUAUCGUCAAAGACGGUAGUCAAAAGUGAGGAUAUAAGUGAUGUUAGAAGGCACUAAGACUGUAUCGAAUAGAUACGGUCAA [FmnA 2 #K4BetweenAptamer #OpenEnded] | 1450 | 425 | 721 | 534 | 600
AGACUUCACCGAAGGAGCGACGUAGCCUAGUGAUGUUAGGCAAGAGAGAAAUCUCUUAAACGUCAGGUAGGUCGCGGUGAAGUCA [Omei KL Arginine B SS C v3] | 262 | 163 | 202 | 227 | 190
AGAGUCGGCUGUGAUACCAGUCGUAUAACAACAUGUCGCAGUGAUGUUGCGAGAUAGGAUGACCCUUGGCAGCACUCAGUACGAU [Same State Theophylline B GF 7] | 425 | 372 | 347 | 404 | 426
AGAGUUAUAUGAGGAUAUGAGAUAGUUAAUGAGUGAGUUAUAGUGUAGUUUGUUUAGUGAUGUUAUUUAGAAGGCGUGAGUGAUG [ljjlumullin] | 140 | 89.4 | 122 | 133 | 88.8
AGAUAGGGCUGAAGGAGCGUCGGAGAAGAAAAGAAGAAAUCCAGUGAUGUUGGAUAAAUCCGACAGGUAGGUCGCAGUUUUAUGA [hbob_SS_Arginine_B_2t136] | 109 | 116 | 127 | 140 | 119
AGAUGUCCCUGGGAUACCAGUCGGAGUCUCAGGGCUCGGAGUGAUGUUCUGGGAUGUUUCGGCCCUUGGCAGCCCUGGGACUCCC [#2 Exclusion - Theophylline B Attempt #26 (HarryS)] | 573 | 266 | 908 | 671 | 398
AGAUGUUCCUGGGAUACCAGUCGGAGUCUCAGAGCUCGGAGUGAUGUUCUGGGAUGUUUCGGCCCUUGGCAGCUCUGGGACUCCC [#2 Exclusion - Theophylline B Attempt #24 (HarryS)] | 1120 | 624 | 642 | 735 | 726
AGAUUCGGCACGGCCGCCACUUCCGGUGGCUGGUGUCAUGGUGCGCGUGAGUGAUGUUUAUGUGGGAGGACCGGGUGUUGAGUCU [whbob_Ex_Tryp_B_w43] | 974 | 411 | 898 | 592 | 603
AGCAGCAAAUCCUAGUGAUGUUAGGAUAUGUAGGAUAUCGGGAUACCGAGAAGGACAGAAGGAGGAGUGAUGUUCCUCAGCUGCA [FmnAX 23 #DoubleAptamer #DoubleK4 #SwitchBubble] | 116 | 106 | 104 | 102 | 94.9
AGCCAGGAACUUGCAACCUGGCUGCUGGAUACCAGCUCGGAAACGAGCCCUUGGCAGCCAGUACUUGCAGUGAUGUUGCAAGUUC [Design13] | 72.2 | 37.3 | 153 | 25.9 | 290
AGCCUAGGAGUCAUUUCCUGCCCGUACGAUACCAGCAUUACCAGUUGCCCUUGGCAGCGUUAUAAGGCCAGUGAUGUUGGCCACU [theeternabot_sameState_KL_Theo_A_22] | 168 | 175 | 185 | 197 | 167
AGCCUGAUAUAAGGAUAUCCGGACCGAGUAACUGAGUGAUGUUCAGGUGAAUAAUGUCUCACAUUGGGAGAAGGUAUUUCAGCGA [theeternabot_sameState_KL_FMN_B_21] | 232 | 182 | 251 | 276 | 225
